Assays:
[1] = target: T1, human ROR1 protein (human, UniProt Q01973 30-403, limits assumed); test: SPR (Biacore 8K); human ROR1 amine-coupled at 0.10 ug/mL as ligand, antibody as analyte
T1 construct: Recombinant antigen of the SPR assay; also called ROR1 (SPR ligand)

[2] = target: T1, human ROR1 protein; test: SPR (Biacore 8K); human ROR1 amine-coupled at 0.05 ug/mL as ligand, antibody as analyte
[3] = target: T1, human ROR1 protein; test: SPR (Biacore 8K); human ROR1 amine-coupled at 0.50 ug/mL as ligand, antibody as analyte
[4] = target: T1, human ROR1 protein; test: SPR (Biacore 8K); human ROR1 amine-coupled at 12.50 ug/mL as ligand, antibody as analyte
[5] = target: T1, human ROR1 protein; test: SPR (Biacore 8K); human ROR1 amine-coupled at 62.50 ug/mL as ligand, antibody as analyte
[6] = target: T1, human ROR1 protein; test: SPR (Biacore 8K); human ROR1 amine-coupled at 2.50 ug/mL as ligand, antibody as analyte
[7] = target: human ROR1 (on CHO-K1/ROR1 cells and ROR1 tumour cell lines) (human) (UniProt Q01973); test: cell-based or functional assay
Chain of human ROR1 (on CHO-K1/ROR1 cells and ROR1 tumour cell lines) (human) (Q01973 30-937): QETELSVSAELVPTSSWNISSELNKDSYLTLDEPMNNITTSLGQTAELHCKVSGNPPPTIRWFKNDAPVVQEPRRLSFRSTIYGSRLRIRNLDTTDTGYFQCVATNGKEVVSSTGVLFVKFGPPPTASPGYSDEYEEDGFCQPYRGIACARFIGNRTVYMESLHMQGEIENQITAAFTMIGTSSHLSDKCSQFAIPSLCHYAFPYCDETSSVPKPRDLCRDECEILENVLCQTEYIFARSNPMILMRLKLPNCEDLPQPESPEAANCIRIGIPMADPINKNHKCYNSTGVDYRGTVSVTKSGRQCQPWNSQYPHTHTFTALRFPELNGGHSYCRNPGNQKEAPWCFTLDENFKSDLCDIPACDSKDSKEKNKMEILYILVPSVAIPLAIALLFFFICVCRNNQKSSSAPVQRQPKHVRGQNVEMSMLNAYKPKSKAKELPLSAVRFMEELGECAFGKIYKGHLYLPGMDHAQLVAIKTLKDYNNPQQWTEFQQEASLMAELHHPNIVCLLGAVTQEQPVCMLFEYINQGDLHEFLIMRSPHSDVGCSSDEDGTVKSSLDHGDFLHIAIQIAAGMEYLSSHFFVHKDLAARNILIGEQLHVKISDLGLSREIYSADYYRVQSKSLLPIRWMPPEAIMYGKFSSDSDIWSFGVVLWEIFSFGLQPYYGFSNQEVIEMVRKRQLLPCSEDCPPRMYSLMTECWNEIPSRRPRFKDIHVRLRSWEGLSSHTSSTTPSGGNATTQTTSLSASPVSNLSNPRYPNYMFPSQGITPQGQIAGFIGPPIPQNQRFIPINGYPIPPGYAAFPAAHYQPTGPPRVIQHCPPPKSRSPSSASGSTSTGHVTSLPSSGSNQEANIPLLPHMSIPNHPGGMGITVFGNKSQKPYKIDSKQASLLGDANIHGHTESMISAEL

[8] = target: T2, human ROR1 (on CHO-K1/ROR1 cells and ROR1 tumour cell lines) (human, UniProt Q01973 30-937); test: flow cytometry on CHO-K1/ROR1 cells overexpressing human ROR1
T2 construct: whole, on cells; also called receptor tyrosine kinase-like orphan receptor 1
T2 sequence (Q01973 30-937): as above

[9] = target: T3, human CD3 (on Jurkat cells) (human, UniProt P07766 23-207; P09693 23-182; P04234 22-171); test: flow cytometry on Jurkat cells expressing human CD3
T3 construct: whole, on cells
T3 sequence (P07766 23-207, chain 1 of 3): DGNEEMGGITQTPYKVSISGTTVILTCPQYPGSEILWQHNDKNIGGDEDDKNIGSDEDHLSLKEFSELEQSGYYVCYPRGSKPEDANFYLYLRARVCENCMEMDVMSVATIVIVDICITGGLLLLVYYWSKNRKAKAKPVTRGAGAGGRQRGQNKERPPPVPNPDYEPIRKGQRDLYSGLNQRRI
T3 sequence (P09693 23-182, chain 2 of 3): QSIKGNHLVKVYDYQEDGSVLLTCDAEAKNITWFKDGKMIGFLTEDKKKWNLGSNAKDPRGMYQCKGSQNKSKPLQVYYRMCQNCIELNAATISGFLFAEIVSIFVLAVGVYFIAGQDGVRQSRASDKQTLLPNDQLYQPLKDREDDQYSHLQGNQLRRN
T3 sequence (P04234 22-171, chain 3 of 3): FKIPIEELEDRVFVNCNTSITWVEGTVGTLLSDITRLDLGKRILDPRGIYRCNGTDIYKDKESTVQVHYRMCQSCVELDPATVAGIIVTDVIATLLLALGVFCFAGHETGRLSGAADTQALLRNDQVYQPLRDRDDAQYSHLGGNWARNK

T1 sequence (Q01973 30-403 limits assumed): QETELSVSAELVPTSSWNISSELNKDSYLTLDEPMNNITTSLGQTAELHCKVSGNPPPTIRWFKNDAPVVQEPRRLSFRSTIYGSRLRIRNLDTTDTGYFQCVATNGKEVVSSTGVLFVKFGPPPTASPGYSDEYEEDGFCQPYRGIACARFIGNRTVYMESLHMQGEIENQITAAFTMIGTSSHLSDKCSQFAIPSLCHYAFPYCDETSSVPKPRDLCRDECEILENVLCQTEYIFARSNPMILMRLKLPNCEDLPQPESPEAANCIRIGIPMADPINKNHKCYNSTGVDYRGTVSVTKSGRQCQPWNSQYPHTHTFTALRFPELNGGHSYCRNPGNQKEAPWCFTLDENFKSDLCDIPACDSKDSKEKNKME

**Q.** Which Kd [1] does the source give for NVG-111 (bispecific antibody) here?
**A.** 1.82 nM

**Q.** What about the koff [1] of the same molecule?
**A.** 0.00113 s⁻¹

**Q.** And the kon [1]?
**A.** 622000 M⁻¹ s⁻¹

**Q.** What about the Kd [2] of the same molecule?
**A.** 2.59 nM

**Q.** What about the koff [2] of the same molecule?
**A.** 0.00138 s⁻¹

**Q.** And the kon [2]?
**A.** 532000 M⁻¹ s⁻¹

**Q.** And the Kd [3]?
**A.** 1.92 nM

**Q.** And the koff [3]?
**A.** 0.00122 s⁻¹

**Q.** What about the kon [3] of the same molecule?
**A.** 632000 M⁻¹ s⁻¹

**Q.** What about the Kd [4] of the same molecule?
**A.** 1.49 nM

**Q.** And the koff [4]?
**A.** 0.00109 s⁻¹

**Q.** And the kon [4]?
**A.** 733000 M⁻¹ s⁻¹

**Q.** And the Kd [5]?
**A.** 1.71 nM

**Q.** And the koff [5]?
**A.** 0.00101 s⁻¹

**Q.** And the kon [5]?
**A.** 593000 M⁻¹ s⁻¹

**Q.** And the Kd [6]?
**A.** 1.64 nM

**Q.** What about the koff [6] of the same molecule?
**A.** 0.00118 s⁻¹

**Q.** And the kon [6]?
**A.** 723000 M⁻¹ s⁻¹

**Q.** And the EC50 of T cell activation based on reporter gene (luciferase), target cells A375 [7]?
**A.** 0.0329 nM

**Q.** What about the EC50 of T cell activation based on reporter gene (luciferase), target cells Jeko-1 [7] of the same molecule?
**A.** 0.0358 nM

**Q.** And the EC50 of T cell activation based on reporter gene (luciferase), target cells MDA-MB-231 [7]?
**A.** 0.01 nM

B1: BsAb-1 (bispecific antibody, human IgG1, lambda)
chain: EVQLVESGGGLVQPGGSLRLSCAASGFISRFYAMGWYRQAPGKQRELVARISSMGWTYYADSVKGRFTISIDNSKNTLYLQMNSLRAEDTAVYYCNARNLWGQGTLVTVSSDKTHTCPPCPAPESTRGPSVFLFPPKPKDTLMISRTPEVTCVVVDVSHEDPEVKFNWYVDGVEVHNAKTKPREEQYNSTYRVVSVLTVLHQDWLNGKEYKCKVSNKALPAPIEKTISKAKGQPREPQVCTLPPSRDELTKNQVSLSCAVKGFYPSDIAVEWESNGQPENNYKTTPPVLDSDGSFFLVSKLTVDKSRWQQGNVFSCSVMHEALHNHYTQKSLSLSPGK
heavy: EVQLVESGGGLVQPGRSLRLSCAASGFTFNTYAMNWVRQAPGKGLEWVARIRSKYNNYATYYADSVKDRFTISRDDSKSIAYLQMNSLKTEDTAVYYCVRHGNFGNSYVSWFAYWGQGTLVTVSSASTKGPSVFPLAPSSKSTSGGTAALGCLVKDYFPEPVTVSWNSGALTSGVHTFPAVLQSSGLYSLSSVVTVPSSSLGTQTYICNVNHKPSNTKVDKKVEPKSCDKTHTCPPCPAPESTRGPSVFLFPPKPKDTLMISRTPEVTCVVVDVSHEDPEVKFNWYVDGVEVHNAKTKPREEQYNSTYRVVSVLTVLHQDWLNGKEYKCKVSNKALPAPIEKTISKAKGQPREPQVYTLPPCRDELTKNQVSLWCLVKGFYPSDIAVEWESNGQPENNYKTTPPVLDSDGSFFLYSKLTVDKSRWQQGNVFSCSVMHEALHNHYTQKSLSLSPGK
light: QTVVTQEPSLTVSPGGTVTLTCRSSTGAVTTSNYANWVQQKPGQAPRGLIGGTNKRAPGVPARFSGSLLGGKAALTLSGVQPEDEAEYFCALWYSNLWVFGGGTKLTVLGQPKAAPSVTLFPPSSEELQANKATLVCLISDFYPGAVTVAWKADSSPVKAGVETTTPSKQSNNKYAASSYLSLTPEQWKSHRSYSCQVTHEGSTVEKTVAPTECS
notes: human IgG1 Fc with L234S/L235T/G236R; also called BsAb-01
**Q.** B1 was tested. Which EC50 [8] did it give?
**A.** 0.287 nM

**Q.** And the EC50 [9]?
**A.** 0.384 nM

B2: BsAb-15 (bispecific antibody, human IgG1, lambda)
chain: EVQLVESGGGLVQPGGSLRLSCAASGRSFSSFQMGWFRQAPGKEREFVAASGWSGGPTYYWDSVIGRFTISTDNSKNTLYLQMNSLRAEDTAVYYCYEDRVLSGRHVRYWGQGTLVTVSSDKTHTCPPCPAPESTRGPSVFLFPPKPKDTLMISRTPEVTCVVVDVSHEDPEVKFNWYVDGVEVHNAKTKPREEQYNSTYRVVSVLTVLHQDWLNGKEYKCKVSNKALPAPIEKTISKAKGQPREPQVCTLPPSRDELTKNQVSLSCAVKGFYPSDIAVEWESNGQPENNYKTTPPVLDSDGSFFLVSKLTVDKSRWQQGNVFSCSVMHEALHNHYTQKSLSLSPGK
heavy: EVQLVESGGGLVQPGRSLRLSCAASGFTFNTYAMNWVRQAPGKGLEWVARIRSKYNNYATYYADSVKDRFTISRDDSKSIAYLQMNSLKTEDTAVYYCVRHGNFGNSYVSWFAYWGQGTLVTVSSASTKGPSVFPLAPSSKSTSGGTAALGCLVKDYFPEPVTVSWNSGALTSGVHTFPAVLQSSGLYSLSSVVTVPSSSLGTQTYICNVNHKPSNTKVDKKVEPKSCDKTHTCPPCPAPESTRGPSVFLFPPKPKDTLMISRTPEVTCVVVDVSHEDPEVKFNWYVDGVEVHNAKTKPREEQYNSTYRVVSVLTVLHQDWLNGKEYKCKVSNKALPAPIEKTISKAKGQPREPQVYTLPPCRDELTKNQVSLWCLVKGFYPSDIAVEWESNGQPENNYKTTPPVLDSDGSFFLYSKLTVDKSRWQQGNVFSCSVMHEALHNHYTQKSLSLSPGK
light: QTVVTQEPSLTVSPGGTVTLTCRSSTGAVTTSNYANWVQQKPGQAPRGLIGGTNKRAPGVPARFSGSLLGGKAALTLSGVQPEDEAEYFCALWYSNLWVFGGGTKLTVLGQPKAAPSVTLFPPSSEELQANKATLVCLISDFYPGAVTVAWKADSSPVKAGVETTTPSKQSNNKYAASSYLSLTPEQWKSHRSYSCQVTHEGSTVEKTVAPTECS
**Q.** Which EC50 [9] does the source give for B2 here?
**A.** 0.743 nM

B3: BsAb-8 (bispecific antibody, human IgG1, lambda)
chain: EVQLVESGGGLVQPGGSLRLSCAASGRSFSSFQMGWFRQAPGKEREFVAASGWSGGPTYYWDSVIGRFTISTDNSKNTLYLQMNSLRAEDTAVYYCYEDRVLSGRPVRYWGQGTLVTVSSGGGGSGGGGSGGGGSEVQLVESGGGLVQPGGSLRLSCAASGRSFSSFQMGWFRQAPGKEREFVAASGWSGGPTYYWDSVIGRFTISTDNSKNTLYLQMNSLRAEDTAVYYCYEDRVLSGRPVRYWGQGTLVTVSSDKTHTCPPCPAPESTRGPSVFLFPPKPKDTLMISRTPEVTCVVVDVSHEDPEVKFNWYVDGVEVHNAKTKPREEQYNSTYRVVSVLTVLHQDWLNGKEYKCKVSNKALPAPIEKTISKAKGQPREPQVCTLPPSRDELTKNQVSLSCAVKGFYPSDIAVEWESNGQPENNYKTTPPVLDSDGSFFLVSKLTVDKSRWQQGNVFSCSVMHEALHNHYTQKSLSLSPGK
heavy: EVQLVESGGGLVQPGRSLRLSCAASGFTFNTYAMNWVRQAPGKGLEWVARIRSKYNNYATYYADSVKDRFTISRDDSKSIAYLQMNSLKTEDTAVYYCVRHGNFGNSYVSWFAYWGQGTLVTVSSASTKGPSVFPLAPSSKSTSGGTAALGCLVKDYFPEPVTVSWNSGALTSGVHTFPAVLQSSGLYSLSSVVTVPSSSLGTQTYICNVNHKPSNTKVDKKVEPKSCDKTHTCPPCPAPESTRGPSVFLFPPKPKDTLMISRTPEVTCVVVDVSHEDPEVKFNWYVDGVEVHNAKTKPREEQYNSTYRVVSVLTVLHQDWLNGKEYKCKVSNKALPAPIEKTISKAKGQPREPQVYTLPPCRDELTKNQVSLWCLVKGFYPSDIAVEWESNGQPENNYKTTPPVLDSDGSFFLYSKLTVDKSRWQQGNVFSCSVMHEALHNHYTQKSLSLSPGK
light: QTVVTQEPSLTVSPGGTVTLTCRSSTGAVTTSNYANWVQQKPGQAPRGLIGGTNKRAPGVPARFSGSLLGGKAALTLSGVQPEDEAEYFCALWYSNLWVFGGGTKLTVLGQPKAAPSVTLFPPSSEELQANKATLVCLISDFYPGAVTVAWKADSSPVKAGVETTTPSKQSNNKYAASSYLSLTPEQWKSHRSYSCQVTHEGSTVEKTVAPTECS
notes: also called BsAb-08
**Q.** Which results are given for B3?
**A.** EC50 [8]: 0.28 nM; EC50 [9]: 0.838 nM
